Experimental findings from publication PMC4271445 are described below.

By Kd is commonly meant a measure of binding affinity in units of concentration.

In the test the target is Nullbasic-FLAG-V5-6xHis (HIV-1). Briefly: BLI. Background: BLI is a label-free optical method that tracks binding on a fibre tip over time.

B1: Myc-DDK-tagged DDX1 (natural protein)
chain: MAAFSEMGVMPEIAQAVEEMDWLLPTDIQAESIPLILGGGDVLMAAETGSGKTGAFSIPVIQIVYETLKDQQEGKKGKTTIKTGASVLNKWQMNPYDRGSAFAIGSDGLCCQSREVKEWHGCRATKGLMKGKHYYEVSCHDQGLCRVGWSTMQASLDLGTDKFGFGFGGTGKKSHNKQFDNYGEEFTMHDTIGCYLDIDKGHVKFSKNGKDLGLAFEIPPHMKNQALFPACVLKNAELKFNFGEEEFKFPPKDGFVALSKAPDGYIVKSQHSGNAQVTQTKFLPNAPKALIVEPSRELAEQTLNNIKQFKKYIDNPKLRELLIIGGVAARDQLSVLENGVDIVVGTPGRLDDLVSTGKLNLSQVRFLVLDEADGLLSQGYSDFINRMHNQIPQVTSDGKRLQVIVCSATLHSFDVKKLSEKIMHFPTWVDLKGEDSVPDTVHHVVVPVNPKTDRLWERLGKSHIRTDDVHAKDNTRPGANSPEMWSEAIKILKGEYAVRAIKEHKMDQAIIFCRTKIDCDNLEQYFIQQGGGPDKKGHQFSCVCLHGDRKPHERKQNLERFKKGDVRFLICTDVAARGIDIHGVPYVINVTLPDEKQNYVHRIGRVGRAERMGLAISLVATEKEKVWYHVCSSRGKGCYNTRLKEDGGCTIWYNEMQLLSEIEEHLNCTISQVEPDIKVPVDEFDGKVTYGQKRAAGGGSYKGHVDILAPTVQELAALEKEAQTSFLHLGYLPNQLFRTF
With B1, the dissociation constant (Kd) is 6 nM.
